The values that follow come from patent US20040127682A1.

Assay [1] has as its target human CD3 (CD3 epsilon of the T-cell receptor complex) on Jurkat cells (human) (UniProt P07766). In words: competition with 125I-UCHT1 tracer on Jurkat cells; competitor at 1 nM.
Assay [2] has the same target. Nature of the assay: competition with 125I-UCHT1 tracer on Jurkat cells; competitor at 100 nM.

Sequence of UniProt P07766 (P07766 23-207, one chain of several): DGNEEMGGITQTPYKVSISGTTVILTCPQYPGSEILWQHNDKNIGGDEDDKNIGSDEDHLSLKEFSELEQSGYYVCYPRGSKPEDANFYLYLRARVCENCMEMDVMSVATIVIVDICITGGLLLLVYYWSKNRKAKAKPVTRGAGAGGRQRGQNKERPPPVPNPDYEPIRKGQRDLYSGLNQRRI

In the case of scUCHT1, the % of 125I-UCHT1 bound to cells came to 80% in assay [1] and 0% in assay [2].
